Measured values published in the supplement of paper PMC12042874.
± gives the uncertainty stated by the source.

Test: amyloid nucleation score (Sup35N fusion, yeast selection) (log enrichment); library NNK2; higher = more nucleation; inactive = no reads after selection
How it was run: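 Growth for 7 days at 30°C on medium lacking adenine and uracil followed a 24-hour induction with 100 μM copper sulfate of psi-negative yeast expressing peptides of 20 random codons fused to Sup35N. Input and output plasmid inserts were sequenced with Illumina, and sequences with under 100 input reads were excluded. Nucleation score is the DiMSum log enrichment of output over input reads, centred on the mode score of non-aggregating sequences.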

Substance	amyloid nucleation score
LFIYLGDQSSNKVKPTHFRE	-0.497 ± 0.33
LFKFDVPTNIKCYIRSSCSI	inactive
LFKPLRNR	-0.918 ± 0.33
LFLSLTTQNWFNYNLPI	7.32 ± 0.026
LFRRGKILACIYA	0.016 ± 1.1
LFSMSL	-1.27 ± 1
LFSYWSVYSGLREVGPYCMV	0.79 ± 0.21
LFTKRRW	0.87 ± 0.46
LFVVTVTIMCYLSKEYVGLP	0.039 ± 0.51
LFWGWITFTKECTNWGATIG	0.895 ± 0.58
LFWHLHSNFIADVLLNVRLC	1.13 ± 0.53
LFYKVFAYLFFVDVVCASKG	4.97 ± 0.062
LGCMNDNMSNYYCGHR	-1.31 ± 0.55
LGDLFYYFTVRK	0.389 ± 0.66
LGFIHSTG	inactive
LGFLAEELCMSMMGIVDVPE	inactive
LGHASSFCAYCRFDSM	4.16 ± 0.068
LGICPFNGSLRS	-1.65 ± 1.1
LGIVDRTFQSMPYVGWMMV	0.563 ± 0.36
LGLCLHLISSFRHRYAVLSR	-0.19 ± 0.3
LGNRVRMSWNW	0.807 ± 0.44
LGPCSVIGQMVMYDRYGLLD	-0.313 ± 0.76
LGRLIWTRVSYCMSQINRVR	2.23 ± 0.061
LGSVLLRFRH	-0.469 ± 0.23
LGSYVACPRDTKDYQNNSMC	-0.877 ± 0.48

Substance	amyloid nucleation score
LGTLGYTDAILWNYMSHCKG	inactive
LGTSRGNDVENRAYSRWVKV	0.524 ± 0.81
LGVFWIDWPLLLGFRSRTGV	-0.393 ± 1.1
LHCRSCGF	-0.193 ± 0.43
LHIESRLRRSSQEKSN	0.012 ± 0.45
LHILRA	0.605 ± 0.47
LHLFIVGRKWSGDESAFLYA	0.154 ± 0.5
LHSNCRV	0.343 ± 0.8
LHSVMMLGGRIRPHPQVHSL	0.471 ± 0.26
LHSYWH	0.121 ± 0.2
LHVMYQTAMRAFAWNVTDLG	-0.032 ± 0.8
LIAFMRF	5.688 ± 0.042
LIEFAFVQFCNIVIEP	7.102 ± 0.031
LIEVQGSFYIVSALIGYRCG	0.414 ± 0.21
LIGIARSRVYRVKECFVHGL	0.519 ± 0.43
LIHLNNAMIEHCMFEVRSFG	-0.016 ± 0.26
LIIFTGYRCSLPFMSFF	-0.945 ± 1
LILRSVSNYAITIMFAFDTR	4.39 ± 0.096
LIQRVRGCWTSYVYGGVWSR	1.66 ± 0.34
LIQVAFQLYATVQVTVKTDV	2.09 ± 0.26
LIRFYEIFSW	-0.237 ± 1
LIRKFRVVVMFSYVQVLPVI	0.173 ± 1.1
LISATPQSSFHHFEMNSGSH	0.275 ± 0.23
LISKSGSFMNMLGTGDRAR	0.005 ± 1
LIVSAALRYNKDLLWIS	-0.004 ± 0.39

Substance	amyloid nucleation score
LIVSKWVHLWGYNALDNKEK	-1.65 ± 0.62
LIYNVDSVMNFVRVDNYDSP	6.88 ± 0.087
LKAQRFWTNNLSLEANSHRK	-0.573 ± 1.1
LKCVHCYIRHLNFYFILPLC	inactive
LKEDF	inactive
LKGGIFRV	inactive
LKMCYFLRNKPTQMHVSGVY	0.04 ± 0.5
LKMSHIYCSIIITAYLNWLV	inactive
LKNFNLRIMTTPLNCNCNTY	-0.434 ± 0.29
LKVGVIDNI	-1.2 ± 0.61
LKWVTFEST	-0.418 ± 1.1
LLFSSSSLPIGTGGYDLTAG	-0.408 ± 1.1
LLFTGNLGFTVSRSLSRRDR	6.945 ± 0.069
LLGISLLSLWTFGYLSEIVV	0 ± 0.8
LLHLQYHLFMLCTVVNPHLL	-0.628 ± 0.54
LLIFNGLYGWAIGDGLPSSW	5.09 ± 0.051
LLKARLLRSHLWVG	0.057 ± 0.43
LLKLCRRIKDATFDSLPGCA	0.93 ± 0.31
LLLCGNSRGQDEASSIVFTM	0.726 ± 0.66
LLLHWRSWMRKCHVITCWSS	0.436 ± 0.35
LLLPLFII	inactive
LLNSCSTVESWCNLGEMDKY	0.122 ± 1.1
LLPSLWV	-0.437 ± 0.63
LLQKDEVRE	-0.505 ± 0.3
LLRRGVDIWVEHFRE	-0.613 ± 0.64

Substance	amyloid nucleation score
LLRSEVGDLILPCVLERCRP	1.13 ± 0.36
LLSIYVSSWKLRGSAPG	-0.337 ± 0.63
LLTRLKGGPPARAPHSTSGL	1.91 ± 0.13
LLVFNLIYPSVRKGFFIIYA	inactive
LLYQKKDEWLGASYSLQKLS	-0.686 ± 0.37
LLYQLRNMVILEHFMMIDFM	inactive
LLYTSWLV	0.272 ± 0.41
LMFCIENLAVMESELMGSCR	0.464 ± 0.62
LMGLQMSLPWSNEIVRVIPD	-0.663 ± 0.49
LMHFGMKEEDYWKPCSICIS	inactive
LMLGSWQDKMPSLLWLDLCV	0.86 ± 0.52
LMLIVQDPCLSEINFKLDSG	4.59 ± 0.11
LMLRGLEEARAPRCESWPSW	1.21 ± 0.34
LMSFGDLCIHLGFGSCFCLM	-0.631 ± 0.39
LMSKKGNGIGLEQPLLSSDT	-0.778 ± 1.1
LNDSLTIACSTNTANSWRNL	inactive
LNDWNFLVMVHISIVIRILF	inactive
LNGCGVLRPVR	5.89 ± 0.067
LNIFI	2.96 ± 0.062
LNKNYWGL	-0.921 ± 0.39
LNLQSLTSHTVKGL	0.147 ± 0.54
LNMMFYYLRFRMHFRWMDC	-0.79 ± 0.38
LNQSDLLADFLVLI	0.474 ± 0.31
LNSRS	-0.436 ± 0.76
LNSSLLFHNLMVHH	inactive

Substance	amyloid nucleation score
LNYMLSAPYFPYESEWSSKG	-0.59 ± 1.1
LNYNYTQDR	-0.751 ± 1.1
LPGCTTRLHVNLIGALECCK	0.077 ± 0.35
LPIDVSNVGTFVEWIFFAIR	-1.5 ± 0.54
LPRMGSEWFVCWLCSCVATW	0.718 ± 0.57
LPTWYVLVPLMDYIYYLFKE	-0.536 ± 1
LQCRLIRVMYVMHCDVWVV	-0.087 ± 0.24
LQRRCLINKNTGTPRLSN	-0.358 ± 1
LQTQFTAVC	0.27 ± 0.22
LQVRSDSMNGFNW	-0.61 ± 1.1
LRAVWATVIVSVAMSVSCPK	5.07 ± 0.07
LRAWLSSLAHTKRRCELGTP	0.575 ± 0.3
LRCHDGVKLSKSVCECCMYM	2.37 ± 0.19
LRCSESCNLMNKYGWRRNQA	3.65 ± 0.081
LRDCFVEYEGSSSMYYLRQW	-0.105 ± 0.4
LRDTPLMGWYCFRSHLVTVS	1.3 ± 0.51
LRFCSSSVISGLQFSSRVVE	-0.029 ± 1.1
LRFFHQSL	inactive
LRFPRGLNGNDPGSIAS	-0.085 ± 0.79
LRGLSAPACKYQWQDEMYD	-0.628 ± 0.45
LRGLVMRCAFIVKGLGLCEG	0.979 ± 0.22
LRGQEKLWGVACSLVLIVTA	1.39 ± 0.15
LRGVLLSETRCAKEGLPTLS	0.365 ± 0.36
LRKNSLTCSSKKPEKAVTFC	-1.42 ± 1
LRKVLW	-0.657 ± 0.79

Substance	amyloid nucleation score
LRMNYIAAVHSCAVLHHFNA	3.13 ± 0.073
LRPLL	-0.912 ± 0.93
LRRDL	-0.408 ± 0.63
LRRTSVVIGRVRSSRLCGLR	9.336 ± 0.054
LRVTGNVGLSFGAKGLARPD	3.33 ± 0.12
LRWRSCGNELDFKLNGLDFE	0.586 ± 0.74
LRYHKTILYTRFSRNHTYAT	0.498 ± 0.74
LSAVLSAHIMVCLGYAYLG	inactive
LSAVWLWVNFFQHMTNRC	-1.71 ± 0.76
LSFFDLIMGVRGMLQSVCGL	-0.131 ± 0.56
LSFRGDSR	0.243 ± 0.26
LSGDNCPRV	-0.342 ± 0.49
LSGMIGSSWAFVSLALIRYQ	-0.798 ± 0.64
LSGSPVYCYCRLR	-0.453 ± 0.78
LSGVFNSFCLRGNGREWVAL	-0.034 ± 0.32
LSHLISFRLTTTSNFRFWDH	3.15 ± 0.093
LSHLLDGGISLKEGYILWMM	-0.252 ± 0.55
LSIMHYIIYRLDFAFSWKGG	-1.05 ± 1.1
LSIRWLTSCYLYGLLGSSGK	0.256 ± 0.29
LSKYLMQYNTCRLESKS	-0.336 ± 0.16
LSLFVQMMSVGTILLYRMTL	0.715 ± 0.34
LSLKVKYFQKDTRVGNGEHK	2.15 ± 0.076
LSPTYRFGTTSSWGINGRDT	0.716 ± 0.24
LSQARVYLCYFEFSYFVVEP	1.83 ± 0.12
LSRDVHCSRFSHREGLITRT	0.767 ± 0.74

Substance	amyloid nucleation score
LSRKTYWA	0.894 ± 0.43
LSSLTLSMVA	0.561 ± 0.62
LSVEFARYTG	1.25 ± 0.15
LSVFVSGAPQIKLSNMVVKN	-0.348 ± 0.76
LSVMLTYYGYMPNLYIVVRE	-0.713 ± 0.49
LSVRPASNELCAHVVVRFEC	3.66 ± 0.09
LSWDYLSWTREI	-0.333 ± 0.24
LSWWIHVTVWFPFQVKTGYL	-0.904 ± 0.78
LTCFSPLVRLEGA	-0.212 ± 0.49
LTCSVNTGYYGYIRRL	-0.607 ± 0.25
LTDCLLLLFGLLGRFYRNLS	inactive
LTFRAVSWTWCYPPELSSCS	0.775 ± 0.49
LTFYCME	-0.465 ± 0.45
LTGLVSLPRCWTIWVPWREG	1.43 ± 0.25
LTGNAWSSMIYSNYNMGVYS	inactive
LTGSFYQHNGMLSTPRHRCL	-0.547 ± 0.63
LTIDQHKVCLPN	inactive
LTIFNYSFWKVDY	0.91 ± 0.18
LTPLSNIGCTCDYLMDCSYL	inactive
LTRCMCPLGDIMRHKEKPEM	-1.25 ± 1.1
LTRKKKMQFF	inactive
